# B1: grg22: EPSP synthase of Methanopyrus kandleri (SEQ ID NO:10), synthetic gene in plasmid pAX724 (protein, listed as Methanopyrus kanleri)
# chain: MKRVELEGIPEVRGTVCPPPSKSGSHRALIAASLCDGSTELWNVLDAEDVRATLRLCRMLGAEVDVDGEERLEATVSGFGDSPRAPEDVVDCGNSGTTLRLGCGLAALVEGTTILTGDDSLRSRPVGDLLAALRSLGVDARGRVVRGEEYPPVVISGRPLRERVAVYGDVSSQFVSALLFLGAGLGALRVDVVGDLRSRPYVDMTVETLERFGVSVVREGSSFEVEGRPRSPGKLRVENDWSSAGYFVALGAIGGEMRIEGVDLDSSHPDRRIVEITREMGAEVRRIDGGIVVRSTGRLEGVEVDLSDSPDLVPTVAAMACFAEGVTRIENVGHLRYKEVDRLRALAAELPKFGVEVREGKDWLEIVGGEPVGARVDSRGDHRMAMALAVVGAFARGKTVVERADAVSISYPRFWEDLASVGVPVHSV
# B2: grg10: EPSP synthase of Clostridium acetobutylicum (SEQ ID NO:6), expressed from plasmid pAX714 (protein, listed as Clostridium acetobutylicum)
# chain: MNCVKINPCCLKGDIKIPPSKSLGHRAIICAALSEEESTIENISYSKDIKATCIGMSKLGALIIEDAKDNSTLKIKKQKLVSKEKVYIDCSESGSTVRFLIPISLIEERNVVFDGQGKLSYRPLDSYFNIFDEKEIAYSHPEGKVLPLQIKGRLKAGMFNLPGNISSQFISGLMFSLPFLEGDSIINITTNLESVGYVDMTIDMLKKFGIEIENKAYKSFFIKGNQKCKGTKYKVEGDFSQAAFWLSAGILNGNINCKDLNISSLQGDKVILDILKKMGGAIDEKSFSSKKSHTHGIVIDASQCPDLVPILSVVAALSEGTTKIVNAARLRIKESDRLKAMATELNKLGAEVVELEDGLLIEGKEKLKGGEVESWNDHRIAMALGIAALRCEESVTINGSECVSKSYPQFWSDLKQLGGDVHEWSLGE
# B3: grg21: EPSP synthase of Fusobacterium nucleatum (SEQ ID NO:8), synthetic gene in plasmid pAX723 (protein, listed as Fusobacterium nucleatum)
# chain: MRNMNKKIIKADKLVGEVTPPPSKSVLHRYIIASSLAKGISKIENISYSDDIIATIEAMKKLGANIEKKDNYLLIDGSKTFDKEYLNNDSEIDCNESGSTLRFLFPLSIVKENKILFKGKGKLFKRPLSPYFENFDKYQIKCSSINENKILLDGELKSGVYEIDGNISSQFITGLLFSLPLLNGNSKIIIKGKLESSSYIDITLDCLNKFGINIINNSYKEFIIEGNQTYKSGNYQVEADYSQVAFFLVANSIGSNIKINGLNVNSLQGDKKIIDFISEIDNWTKNEKLILDGSETPDIIPILSLKACISKKEIEIVNIARLRIKESDRLSATVQELSKLGFDLIEKEDSILINSRKNFNEISNNSPISLSSHSDHRIAMTVAIASTCYEGEIILDNLDCVKKSYPNFWEVFLSLGGKIYEYLG
# B4: grg20: EPSP synthase of Sulfolobus solfataricus (SEQ ID NO:12), expressed from plasmid pAX716 (protein, listed as Solfolobus solfataricus)
# chain: MIVKIYPSKISGIIKAPQSKSLAIRLIFLSLFTRVYLHNLVLSEDVIDAIKSVRALGVKVKNNSEFIPPEKLEIKERFIKLKGSATTLRMLIPILAAIGGEVTIDADESLRRRPLNRIVQALSNYGISFSSYSLPLTITGKLSSNEIKISGDESSQYISGLIYALHILNGGSIEILPPISSKSYILLTIDLFKRFGSDVKFYGSKIHVNPNNLVEFQGEVAGDYGLASFYALSALVSGGGITITNLWEPKEYFGDHSIVKIFSEMGASSEYKDGRWFVKAKDKYSPIKIDIDDAPDLAMTIAGLSAIAEGTSEIIGIERLRIKESDRIESIRKILGLYGVGSEVKYNSILIFGINKGMLNSPVTDCLNDHRVAMMSSALALVNGGVITSAECVGKSNPNYWQDLLSLNAKISIE
# B5: GRG1: EPSP synthase (SEQ ID NO:2) that confers glyphosate resistance, from U.S. application 10/739,610 (protein, listed as Enterobacteriaceae sp.)
# chain: VKVTIQPGDLTGIIQSPASKSSMQRACAAALVAKGISEIINPGHSNDDKAARDIVSRLGARLEDQPDGSLQITSEGVKPVAPFIDCGESGLSIRMFTPIVALSKEEVTIKGSGSLVTRPMDFFDEILPHLGVKVKSNQGKLPLVIQGPLKPADVTVDGSLSSQFLTGLLLAYAAADASDVAIKVTNLKSRPYIDLTLDVMKRFGLKTPENRNYEEFYFKAGNVYDETKMQRYTVEGDWSGGAFLLVAGAIAGPITVRGLDIASTQADKAIVQALMSANAGIAIDAKEIKLHPADLNAFEFDATDCPDLFPPLVALASYCKGETKIKGVSRLAHKESDRGLTLQDEFGKMGVEIHLEGDLMRVIGGKGVKGAEVSSRHDHRIAMACAVAALKAVGETTIEHAEAVNKSYPDFYSDLKQLGGVVSLNHQFNFS
# B6: GRG23: EPSP synthase (SEQ ID NO:14) isolated from a bacterial strain exhibiting strong glyphosate resistance (protein, listed as Arthrobacter globiformis)
# chain: MALERGQHGRSRRLFGASLERITMETDRLVIPGSKSITNRALLLAAAAKGTSVLVRPLVSADTSAFKTAIQALGANVSADGDNWVVEGLGQAPHLDADIWCEDAGTVARFLPPFVAAGQGKFTVDGSEQLRRRPLRPLVDGIRHLGARVSSEQLPLTIEASGLAGGEYEIEAHQSSQFASGLIMAAPYARQGLRVRIPNPVSQPYLTMTLRMMRDFGLETSTDGATVSVPPGRYTARRYEIEPDASTASYFAAASAVSGRSFEFQGLGTDSIQGDTSFFNVLGRLGAEVHWAPNSVTISGPERLNGDIEVDMGEISDTFMTLAAIAPLADGPITITNIGHARLKESDRISAMETNLRTLGVQTDVGHDWMRIYPSTPHGGRVNCHRDHRIAMAFSILGLRVDGITLDDPQCVGKTFPGFFDYLGRLFPEKALTLPG
# modifications: VARIANT (0)...(0) Strain ATX21308
# Experiments:
# [1] = test system: E. coli cells; assay: Growth of E. coli expressing EPSP synthase genes on M63 agar medium containing glyphosate; type: cell-based; details: for Glyphosate resistance conferred by expression in E. coli (summary in words): M63 agar, various concentrations of glyphosate, vs pAX701 glyphosate-sensitive control
# From the text: The coding sequence of the Clostridium acetobutylicum EPSP synthase gene (SEQ ID NO:5), identified in Genbank accession number NC—003030, was PCR amplified using the following primers: […] (upper) (SEQ ID NO:42) and […] (lower) (SEQ ID NO:43). The upper primer changed the start codon to ATG from TTG, as it naturally occurs. The resultant 1.3 kb product was digested with BamH I and Asc I, and ligated into the same sites of a modified version of pUC 18 and transformed into the E. coli strain DH5a. A positive clone containing the EPSP synthase insert was identified by restriction digest and named pAX714. A pAX714 colony was struck onto minimal M63 media containing IPTG, carbenicillin and 0, 20, 50 or 100 mM glyphosate, and the plates were incubated at 37° C. […] The encoded EPSP synthase (SEQ ID NO:6) was named grg10.
# (§1) Plasmids pAX714 and pAX716, containing grg10 and grg20, respectively, were transformed into E. coli cells and streaked onto M63 agar medium containing IPTG, carbenicillin, and various concentrations of glyphosate. Colonies of pAX701 (containing the wild-type E. coli aroA gene) were used as glyphosate-sensitive controls.
# as §1, with “pAX723” for “pAX714”, “pAX72^4,” for “pAX716,”, “grg21” for “grg10”, “grg22,” for “grg20,”
# [2] = test system: bacteria and plants; details: statement referring to earlier patent applications; cited from earlier work
molecule,measurement,setting,value
B1,Glyphosate resistance conferred by expression in E. coli (summary in words),[1],confers resistance to high levels of glyphosate
B2,Glyphosate concentration to which the encoded EPSP synthase is resistant,"[1]; E. coli DH5a on minimal M63 media, 37° C.",at least 100 mM
same,Glyphosate resistance conferred by expression in E. coli (summary in words),[1],confers resistance to high levels of glyphosate
same,Growth of pAX714-containing cells on glyphosate,"[1]; minimal M63 media with IPTG, carbenicillin and 0, 20, 50 or 100 mM glyphosate, 37° C.",grew very well on all concentrations of glyphosate tested
B3,Glyphosate resistance conferred by expression in E. coli (summary in words),[1],confers resistance to high levels of glyphosate
B4,Glyphosate resistance conferred by expression in E. coli (summary in words),[1],confers resistance to high levels of glyphosate
B5,Glyphosate resistance or tolerance conferred on organisms (in words),[2],confers glyphosate resistance upon both bacteria and plants
B6,Glyphosate resistance or tolerance conferred on organisms (in words),[2],confers glyphosate tolerance
